Data set [1] is classed as physicochemical. Particulars: pH 7.4.
A further data set is described as follows: in vivo. The following applies: CB17 SCID, mouse, total radioactivity. Also on record: species or system mice.
Data set [2] concerns the target T1, αvβ6-integrin (Homo sapiens, UniProt P06756+P18564). Kind of data set: ELISA on immobilized integrins, αvβ6. In kind it is binding. Particulars: for IC50: ELISA, read-out: IC50 (95% confidence interval) αvβ6; for αvβ6-selectivity over α5β1 / αvβ6-selectivity over αvβ3 / αvβ6-selectivity over αvβ8: IC50-based. Here is the method: (§1) The integrin affinities of the monomers were determined using an established ELISA protocol,[36] and expressed as 50% inhibitory concentrations (IC50, Table 1).
(§2) Unless otherwise noted, the materials and the instrumentation used (analytical and preparative HPLC, ESI-MS, gamma counter, centrifuge), and the experimental procedures (^68Ga radiolabeling and radio-TLC for quality control, determination of log D7.4, cultivation of H2009 human lung adenocarcinoma cells, generation of tumor xenografts in CB17 SCID mice, small-animal PET, and biodistribution) were described before.[19] All animal experiments have been carried out according to applicable law and institutional guidelines of Technical University of Munich, and were approved by the responsible local authority (Regierung von Oberbayern). The H2009 cells were regularly authenticated and tested for mycoplasma contamination. The affinities of the pentynoic amide functionalized peptides were determined employing a well-established ELISA protocol on immobilized integrins.[36] TRAP-triazide,[38]FF (previously termed AvB6),[32] and YY (also referred to as Tyr2-alkyne)[33] were synthesized as described previously. RP-HPLC for assessment of compound polarity was done on a 150 × 4.6 mm ReproSil-Pur 120 C18-AQ 5 μm column, with a flow of 0.75 mL min^−1 and a gradient of 10–50% MeCN in water, both containing 0.1% trifluoroacetic acid, within 15 min. The required ^natGa-complexes of the peptide trimers were synthesized by reaction with equimolar amounts of aq. GaCl3 as described.[19]
A general note: ELISA stands for enzyme-linked immunosorbent assay.

Data set [3] addresses T2, αvβ8-integrin (Homo sapiens, UniProt P06756+P26012). Kind of data set: ELISA on immobilized integrins, αvβ8. In kind it is binding. The following applies: read-out: IC50 (95% confidence interval) αvβ8. Here is the method: as §1
as §2, with “RP-HPLC for assessment of compound polarity was done on a 150 × 4.6 mm ReproSil-Pur 120 C18-AQ 5 μm column, with a flow of 0.75 mL min^−1 and a gradient of 10–50% MeCN in water, both containing 0.1% trifluoroacetic acid, within 15 min. The required ^natGa-complexes of the peptide trimers were synthesized by reaction with equimolar amounts of aq. GaCl3 as described.[19]” left out

The target in data set [4] is T3, αvβ3-integrin (Homo sapiens, UniProt P05106+P06756). Description: ELISA on immobilized integrins, αvβ3. Particulars: read-out: IC50 (95% confidence interval) αvβ3. In kind it is binding. Here is the method:
as §1
as §2, with “RP-HPLC for assessment of compound polarity was done on a 150 × 4.6 mm ReproSil-Pur 120 C18-AQ 5 μm column, with a flow of 0.75 mL min^−1 and a gradient of 10–50% MeCN in water, both containing 0.1% trifluoroacetic acid, within 15 min. The required ^natGa-complexes of the peptide trimers were synthesized by reaction with equimolar amounts of aq. GaCl3 as described.[19]” left out

In data set [5] the target is T4, α5β1-integrin (Homo sapiens, UniProt P05556+P08648). Kind of data set: ELISA on immobilized integrins, α5β1. In kind it is binding. The following applies: read-out: IC50 (95% confidence interval) α5β1. Here is the method: as §1
as §2, with “RP-HPLC for assessment of compound polarity was done on a 150 × 4.6 mm ReproSil-Pur 120 C18-AQ 5 μm column, with a flow of 0.75 mL min^−1 and a gradient of 10–50% MeCN in water, both containing 0.1% trifluoroacetic acid, within 15 min. The required ^natGa-complexes of the peptide trimers were synthesized by reaction with equimolar amounts of aq. GaCl3 as described.[19]” left out

In a further data set the test system is H2009 bearing SCID mice. The following applies: mouse, in vivo. Here is the method:
Fig. 3 Positron emission tomography (PET) of severe combined immunodeficient (SCID) mice bearing subcutaneous H2009 (human lung adenocarcinoma) xenografts on the right shoulder. Dynamic scans for determination of biokinetics (a and b) were recorded in list mode and reconstructed in multiple frames with increasing time spans. Static images (c and d) were recorded over 20 min, 75 min after tracer administration, and reconstructed as single frames using the OSEM3D algorithm. […]
Unless otherwise noted, the materials and the instrumentation used (analytical and preparative HPLC, ESI-MS, gamma counter, centrifuge), and the experimental procedures (^68Ga radiolabeling and radio-TLC for quality control, determination of log D7.4, cultivation of H2009 human lung adenocarcinoma cells, generation of tumor xenografts in CB17 SCID mice, small-animal PET, and biodistribution) were described before.[19] […] The affinities of the pentynoic amide functionalized peptides were determined employing a well-established ELISA protocol on immobilized integrins.[36] […]

Data set [6] addresses T1, αvβ6-integrin. Also on record: method as in PMID 34559266. The following applies: ELISA; read-out: IC50 (95% confidence interval) αvβ6; cited from earlier work.
The target in data set [7] is T2, αvβ8-integrin. Also on record: method as in PMID 34559266. Particulars: ELISA; read-out: IC50 (95% confidence interval) αvβ8; cited from earlier work.
Data set [8] concerns the target T3, αvβ3-integrin. More on the design: method as in PMID 34559266. The following applies: ELISA; read-out: IC50 (95% confidence interval) αvβ3; cited from earlier work.
Data set [9] has as its target T4, α5β1-integrin. Also on record: method as in PMID 34559266. Particulars: ELISA; read-out: IC50 (95% confidence interval) α5β1; cited from earlier work.

Where two headings read alike, the source gives them in different places. Where a SMILES comes first, the peptide text is derived from it. [ ]: non-standard residue; d: D form. The star is where a group is joined. NMeK = CN[C@@H](CCCCN)C(=O)O; Pent4ynoyl = C#CCCC(=O)*

T3 sequence (P06756 31-1048): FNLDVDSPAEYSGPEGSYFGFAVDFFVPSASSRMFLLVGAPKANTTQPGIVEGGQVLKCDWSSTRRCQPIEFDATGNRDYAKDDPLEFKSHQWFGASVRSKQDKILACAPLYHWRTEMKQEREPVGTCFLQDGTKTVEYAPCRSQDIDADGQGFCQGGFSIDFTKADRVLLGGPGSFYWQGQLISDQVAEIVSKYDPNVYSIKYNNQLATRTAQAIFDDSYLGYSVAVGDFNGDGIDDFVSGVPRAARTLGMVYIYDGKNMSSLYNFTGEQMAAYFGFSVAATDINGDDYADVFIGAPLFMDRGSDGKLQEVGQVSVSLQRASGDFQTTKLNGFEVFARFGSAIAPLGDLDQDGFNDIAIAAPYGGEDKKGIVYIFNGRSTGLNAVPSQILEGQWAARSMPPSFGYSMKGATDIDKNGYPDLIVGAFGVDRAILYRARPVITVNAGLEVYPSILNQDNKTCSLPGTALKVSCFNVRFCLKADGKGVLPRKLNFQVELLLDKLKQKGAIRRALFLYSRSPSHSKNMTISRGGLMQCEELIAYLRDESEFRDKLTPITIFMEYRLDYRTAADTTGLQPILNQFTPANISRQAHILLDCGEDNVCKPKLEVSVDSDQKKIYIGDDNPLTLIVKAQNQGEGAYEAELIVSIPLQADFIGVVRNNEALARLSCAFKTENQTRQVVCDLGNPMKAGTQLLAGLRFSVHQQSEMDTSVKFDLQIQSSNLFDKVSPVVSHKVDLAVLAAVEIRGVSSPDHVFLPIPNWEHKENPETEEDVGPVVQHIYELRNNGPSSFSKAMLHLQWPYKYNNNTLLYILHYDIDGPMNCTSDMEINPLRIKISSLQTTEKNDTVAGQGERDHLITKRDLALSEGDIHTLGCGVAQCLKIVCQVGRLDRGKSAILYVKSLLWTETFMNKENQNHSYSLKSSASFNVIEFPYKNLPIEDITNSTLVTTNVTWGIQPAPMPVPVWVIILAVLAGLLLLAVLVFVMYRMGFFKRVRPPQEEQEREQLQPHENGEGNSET
T3 sequence (P05106 27-788): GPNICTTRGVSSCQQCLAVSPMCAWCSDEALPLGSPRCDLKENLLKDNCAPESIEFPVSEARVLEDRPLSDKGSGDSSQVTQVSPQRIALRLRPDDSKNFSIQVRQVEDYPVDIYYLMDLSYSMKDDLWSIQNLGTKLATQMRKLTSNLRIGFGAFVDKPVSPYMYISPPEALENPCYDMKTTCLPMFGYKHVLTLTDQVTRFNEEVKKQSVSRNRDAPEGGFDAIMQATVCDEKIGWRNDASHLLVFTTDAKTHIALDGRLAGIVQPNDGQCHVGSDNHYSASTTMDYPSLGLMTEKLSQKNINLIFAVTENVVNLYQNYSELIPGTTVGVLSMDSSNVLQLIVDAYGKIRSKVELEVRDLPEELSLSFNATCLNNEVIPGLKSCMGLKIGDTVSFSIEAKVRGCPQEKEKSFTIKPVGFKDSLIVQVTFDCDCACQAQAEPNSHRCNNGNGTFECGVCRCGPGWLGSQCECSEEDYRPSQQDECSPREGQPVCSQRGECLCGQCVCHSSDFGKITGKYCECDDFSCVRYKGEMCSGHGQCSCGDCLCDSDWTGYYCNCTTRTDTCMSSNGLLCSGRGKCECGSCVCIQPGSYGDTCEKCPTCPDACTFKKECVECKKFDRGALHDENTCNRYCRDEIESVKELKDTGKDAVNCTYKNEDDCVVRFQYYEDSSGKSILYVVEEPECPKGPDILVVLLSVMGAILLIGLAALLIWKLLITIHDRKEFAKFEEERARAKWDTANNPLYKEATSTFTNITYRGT
T2 sequence (P06756 31-992 limits assumed): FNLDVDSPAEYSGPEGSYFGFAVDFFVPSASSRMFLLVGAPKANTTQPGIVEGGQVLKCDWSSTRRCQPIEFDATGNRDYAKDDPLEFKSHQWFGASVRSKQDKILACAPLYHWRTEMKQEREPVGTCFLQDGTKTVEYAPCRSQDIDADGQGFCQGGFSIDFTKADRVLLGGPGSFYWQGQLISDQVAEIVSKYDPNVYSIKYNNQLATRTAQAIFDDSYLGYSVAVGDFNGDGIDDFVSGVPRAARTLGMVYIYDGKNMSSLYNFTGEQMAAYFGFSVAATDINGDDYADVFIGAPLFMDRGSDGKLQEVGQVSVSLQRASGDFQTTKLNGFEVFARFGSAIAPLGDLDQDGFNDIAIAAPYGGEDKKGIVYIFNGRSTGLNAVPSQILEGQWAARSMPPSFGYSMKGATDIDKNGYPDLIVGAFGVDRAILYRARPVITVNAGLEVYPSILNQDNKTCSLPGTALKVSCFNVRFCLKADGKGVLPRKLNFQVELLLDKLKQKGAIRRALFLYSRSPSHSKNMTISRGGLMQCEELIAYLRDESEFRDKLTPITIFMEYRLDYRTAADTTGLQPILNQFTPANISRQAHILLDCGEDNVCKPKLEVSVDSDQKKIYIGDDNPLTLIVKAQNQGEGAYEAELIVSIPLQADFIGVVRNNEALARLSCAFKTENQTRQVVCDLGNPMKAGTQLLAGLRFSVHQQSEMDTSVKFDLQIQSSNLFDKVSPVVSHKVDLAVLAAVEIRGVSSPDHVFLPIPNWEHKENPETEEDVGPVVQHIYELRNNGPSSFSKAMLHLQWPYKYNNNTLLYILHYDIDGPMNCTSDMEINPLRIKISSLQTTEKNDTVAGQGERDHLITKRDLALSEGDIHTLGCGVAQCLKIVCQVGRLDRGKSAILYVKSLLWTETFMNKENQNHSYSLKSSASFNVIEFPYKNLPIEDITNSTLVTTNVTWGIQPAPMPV
T2 sequence (P26012 43-684 limits assumed): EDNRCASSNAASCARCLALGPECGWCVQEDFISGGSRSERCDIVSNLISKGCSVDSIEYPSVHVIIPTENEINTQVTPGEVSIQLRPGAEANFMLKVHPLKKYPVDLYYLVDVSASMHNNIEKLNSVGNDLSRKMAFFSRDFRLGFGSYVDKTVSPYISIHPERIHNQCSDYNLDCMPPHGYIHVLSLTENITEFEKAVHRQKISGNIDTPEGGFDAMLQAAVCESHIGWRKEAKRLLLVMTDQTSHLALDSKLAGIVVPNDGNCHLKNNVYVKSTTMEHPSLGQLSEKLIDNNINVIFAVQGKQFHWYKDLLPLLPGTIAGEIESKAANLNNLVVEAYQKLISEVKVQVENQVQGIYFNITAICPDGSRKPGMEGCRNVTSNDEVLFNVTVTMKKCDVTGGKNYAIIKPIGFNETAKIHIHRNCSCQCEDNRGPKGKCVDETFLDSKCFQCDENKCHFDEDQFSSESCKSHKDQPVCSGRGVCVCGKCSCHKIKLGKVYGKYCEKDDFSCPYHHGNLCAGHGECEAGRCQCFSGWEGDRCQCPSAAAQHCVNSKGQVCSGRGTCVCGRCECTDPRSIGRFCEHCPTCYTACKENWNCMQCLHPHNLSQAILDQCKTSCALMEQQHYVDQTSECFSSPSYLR
T1 sequence (P06756 31-992 limits assumed): as the sequence (P06756 31-992 limits assumed) above
T1 sequence (P18564 22-707 limits assumed): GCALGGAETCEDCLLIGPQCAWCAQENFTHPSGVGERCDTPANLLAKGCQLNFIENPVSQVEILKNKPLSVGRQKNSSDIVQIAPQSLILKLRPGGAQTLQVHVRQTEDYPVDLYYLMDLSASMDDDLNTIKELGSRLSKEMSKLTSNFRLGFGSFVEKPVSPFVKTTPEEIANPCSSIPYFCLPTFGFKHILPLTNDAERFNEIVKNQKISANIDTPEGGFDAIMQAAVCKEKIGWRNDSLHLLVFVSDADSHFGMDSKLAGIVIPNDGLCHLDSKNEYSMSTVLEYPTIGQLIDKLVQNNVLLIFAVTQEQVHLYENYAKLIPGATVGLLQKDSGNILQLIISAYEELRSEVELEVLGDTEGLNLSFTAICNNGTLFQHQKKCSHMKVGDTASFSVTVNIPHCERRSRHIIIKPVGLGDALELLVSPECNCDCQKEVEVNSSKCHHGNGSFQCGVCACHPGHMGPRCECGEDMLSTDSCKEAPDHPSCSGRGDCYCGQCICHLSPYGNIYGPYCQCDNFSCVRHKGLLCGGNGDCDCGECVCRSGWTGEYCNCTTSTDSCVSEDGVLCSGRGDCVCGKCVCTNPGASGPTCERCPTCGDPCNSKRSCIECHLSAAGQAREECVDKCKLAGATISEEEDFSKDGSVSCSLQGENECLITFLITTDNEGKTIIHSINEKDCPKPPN

Regarding `CC(C)C[C@@H]1NC(=O)[C@H](CC(=O)O)NC(=O)CNC(=O)[C@H](CCCNC(=N)N)NC(=O)[C@H](Cc2ccc(O)cc2)NC(=O)[C@H](CCCCNC(=O)CCc2cn(CCCNC(=O)CCP(=O)(O)CN3CCN(CP(=O)(O)CCC(=O)NCCCn4cc(CCC(=O)NCCCC[C@H]5C(=O)N[C@@H](Cc6ccc(O)cc6)C(=O)N[C@@H](CCCNC(=N)N)C(=O)NCC(=O)N[C@@H](CC(=O)O)C(=O)N[C@@H](CC(C)C)C(=O)N[C@@H](C)C(=O)N[C@@H](Cc6ccc(O)cc6)C(=O)N6CCC[C@@H]6C(=O)N5C)nn4)CCN(CP(=O)(O)CCC(=O)NCCCn4cc(CCC(=O)NCCCC[C@H]5C(=O)N[C@@H](Cc6ccc(O)cc6)C(=O)N[C@@H](CCCNC(=N)N)C(=O)NCC(=O)N[C@@H](CC(=O)O)C(=O)N[C@@H](CC(C)C)C(=O)N[C@@H](C)C(=O)N[C@@H](Cc6ccc(O)cc6)C(=O)N6CCC[C@@H]6C(=O)N5C)nn4)CC3)nn2)N(C)C(=O)[C@H]2CCCN2C(=O)[C@H](Cc2ccc(O)cc2)NC(=O)[C@H](C)NC1=O` (68Ga complex, metal not drawn) [Y6], in data set [1], the logD (in general, the decadic logarithm of the distribution of all forms, ionised or not, between an organic phase and buffer at a given pH) is -2.1 ± 0.1. The tissue uptake (as a rule, the percentage of the injected dose found per gram of tissue) at 1.5 h in “in vivo” (Adrenals uptake) was 0.5 ± 0.11 %ID/g; in the data set “in vivo” (Blood uptake), 1.03 ± 0.21 %ID/g; in the data set “in vivo” (Heart (myocard) uptake) it was 0.59 ± 0.11 %ID/g; in “in vivo” (Kidneys uptake), 95.7 ± 12.6 %ID/g; in “in vivo” (Large intestine (empty) uptake), 4.36 ± 0.77 %ID/g; in “in vivo” (Liver uptake) it was 0.73 ± 0.11 %ID/g. Besides, the tissue uptake at 1.5 h in the data set “in vivo” (Lung uptake) amounted to 4.47 ± 1.12 %ID/g; in “in vivo” (Muscle uptake), 0.68 ± 0.18 %ID/g; in the data set “in vivo” (Pancreas uptake), 0.27 ± 0.04 %ID/g; in the data set “in vivo” (Small intestine (empty) uptake), 2.72 ± 1.15 %ID/g; in the data set “in vivo” (Spleen uptake), 3.91 ± 0.91 %ID/g; in the data set “in vivo” (Stomach (empty) uptake), 6.24 ± 1.24 %ID/g. For the same compound, the tissue uptake at 1.5 h in “in vivo” (Tumor H2009 uptake) was determined as 7.52 ± 1.21 %ID/g.

As for `C#CCCC(=O)NCCCC[C@H]1C(=O)N[C@@H](Cc2ccccc2)C(=O)N[C@@H](CCCNC(=N)N)C(=O)NCC(=O)N[C@@H](CC(=O)O)C(=O)N[C@@H](CC(C)C)C(=O)N[C@@H](C)C(=O)N[C@@H](Cc2ccc(O)cc2)C(=O)N2CCC[C@@H]2C(=O)N1C` [FY] (cyclo(FRGDLAY[dP][NMeK](Pent4ynoyl))), at αvβ6-integrin [2], the IC50 (as a rule, the point on the concentration scale where inhibition reaches its midpoint) came to 2.8 nM; the “αvβ6-selectivity over α5β1” value came out at 63; the “αvβ6-selectivity over αvβ3” value is recorded as 261; the “αvβ6-selectivity over αvβ8” value worked out at 13.2. Also, at αvβ8-integrin [3], the IC50 stood at 37 nM. Further, the IC50 on αvβ3-integrin [4] was determined as 732 nM. Moreover, the IC50 on α5β1-integrin [5] stood at 177 nM.

`CC(C)C[C@@H]1NC(=O)[C@H](CC(=O)O)NC(=O)CNC(=O)[C@H](CCCNC(=N)N)NC(=O)[C@H](Cc2ccc(O)cc2)NC(=O)[C@H](CCCCNC(=O)CCc2cn(CCCNC(=O)CCP(=O)(O)CN3CCN(CP(=O)(O)CCC(=O)NCCCn4cc(CCC(=O)NCCCC[C@H]5C(=O)N[C@@H](Cc6ccc(O)cc6)C(=O)N[C@@H](CCCNC(=N)N)C(=O)NCC(=O)N[C@@H](CC(=O)O)C(=O)N[C@@H](CC(C)C)C(=O)N[C@@H](C)C(=O)N[C@@H](Cc6ccc(O)cc6)C(=O)N6CCC[C@@H]6C(=O)N5C)nn4)CCN(CP(=O)(O)CCC(=O)NCCCn4cc(CCC(=O)NCCCC[C@H]5C(=O)N[C@@H](Cc6ccc(O)cc6)C(=O)N[C@@H](CCCNC(=N)N)C(=O)NCC(=O)N[C@@H](CC(=O)O)C(=O)N[C@@H](CC(C)C)C(=O)N[C@@H](C)C(=O)N[C@@H](Cc6ccc(O)cc6)C(=O)N6CCC[C@@H]6C(=O)N5C)nn4)CC3)nn2)N(C)C(=O)[C@H]2CCCN2C(=O)[C@H](Cc2ccc(O)cc2)NC(=O)[C@H](C)NC1=O` [Y6]: the “Kinetic data Blood” value in the data set on H2009 bearing SCID mice is listed as 13.14 ± 1.99.

As for `C#CCCC(=O)NCCCC[C@H]1C(=O)N[C@@H](Cc2ccc(O)cc2)C(=O)N[C@@H](CCCNC(=N)N)C(=O)NCC(=O)N[C@@H](CC(=O)O)C(=O)N[C@@H](CC(C)C)C(=O)N[C@@H](C)C(=O)N[C@@H](Cc2ccccc2)C(=O)N2CCC[C@@H]2C(=O)N1C` [YF] (cyclo(YRGDLAF[dP][NMeK](Pent4ynoyl))), on αvβ6-integrin [2], the IC50 turned out to be 3.3 nM, the “αvβ6-selectivity over α5β1” value is 35, the “αvβ6-selectivity over αvβ3” value is listed as 190 and the “αvβ6-selectivity over αvβ8” value was 6.9. For the same compound, on αvβ8-integrin [3], the IC50 is 23 nM. The IC50 on αvβ3-integrin [4] is 630 nM. Also, at α5β1-integrin [5], the IC50 was found to be 114 nM.

On to “FF: cyclo[FRGDLAFp(NMe)K] bearing 4-pentynoic amide on the Lys side chain; alkyne-functionalized peptide monomer”, for which the IC50 in the data set with αvβ6-integrin [6] is 0.17 nM; with αvβ8-integrin [7], 32 nM; in the data set with αvβ3-integrin [8] it was 424 nM; in the data set with α5β1-integrin [9] it was 226 nM.

Take “YY: cyclo[YRGDLAYp(NMe)K] bearing 4-pentynoic amide on the Lys side chain; alkyne-functionalized peptide monomer (cyclo(YRGDLAY[dP][NMeK](Pent4ynoyl)); SMILES C#CCCC(=O)NCCCC[C@H]1C(=O)N[C@@H](Cc2ccc(O)cc2)C(=O)N[C@@H](CCCNC(=N)N)C(=O)NCC(=O)N[C@@H](CC(=O)O)C(=O)N[C@@H](CC(C)C)C(=O)N[C@@H](C)C(=O)N[C@@H](Cc2ccc(O)cc2)C(=O)N2CCC[C@@H]2C(=O)N1C)”: the IC50 was 0.84 nM in the data set with αvβ6-integrin [6], 26 nM with αvβ8-integrin [7], 219 nM with αvβ3-integrin [8] and 150 nM with α5β1-integrin [9].

(Values after article PMC10718521, “Complexity of αvβ6-integrin targeting RGD peptide trimers: emergence of non-specific binding by synergistic interaction” (RSC Medicinal Chemistry, 2023).)
